From the supplement of paper PMC5998384 come the findings set out here.

Series [1] deals with HeLa Kyoto. Briefly: thermal stability score vs G1/S (z-score of summed log2 fold changes over temperatures); higher = more thermally stable than in G1/S.
In series [2] the test system is HeLa Kyoto. Briefly: solubility change mitosis vs G1/S (difference of NP-40 vs SDS log2 ratios) (log2 ratio difference); higher = more soluble in mitosis.
For series [3], the system named is HeLa Kyoto. As to the kind of experiment: melting temperature (median over replicates), in situ; higher = more thermally stable.
Series [4] relates to HeLa Kyoto. Briefly: solubility in G1/S (NP-40 vs SDS abundance) (log2 ratio); higher = more soluble. As to conditions: cell cycle stage: G1/S.
[5] abbreviates: cell cycle stage: early G1 (4.5 h after nocodazole release).
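Throughout, for melting temperature (median over replicates), in situ: HeLa Kyoto cells synchronized by double thymidine or nocodazole block, proteins quantified by TMT10plex mass spectrometry, three independent biological replicates.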
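Throughout, for solubility change mitosis vs G1/S (difference of NP-40 vs SDS log2 ratios): synchronized HeLa Kyoto cells (double thymidine block for G1/S, nocodazole release for mitosis), protein amounts in NP-40 versus SDS lysates quantified by mass spectrometry, three biological replicates.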
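Throughout, for solubility in G1/S (NP-40 vs SDS abundance): HeLa Kyoto cells arrested at G1/S by double thymidine block, proteins quantified by TMT10plex mass spectrometry in mild NP-40 versus SDS extracts, three biological replicates.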
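Throughout, for thermal stability score vs G1/S (z-score of summed log2 fold changes over temperatures): synchronized HeLa Kyoto cells, proteins quantified by TMT10plex mass spectrometry, three biological replicates, mitosis taken 0.5 h after nocodazole release, G1/S directly after double thymidine block.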

Take “MAERQEEQRGSPPLRAEGKADAEVKLILYHWTHSFSSQKVRLVIAEKALKCEEHDVSLPLSEHNEPWFMRLNSTGEVPVLIHGENIICEATQIIDYLEQTFLDERTPRLMPDKESMYYPRVQHYRELLDSLPMDAYTHGCILHPELTVDSMIPAYATTRIRSQIGNTESELKKLAEENPDLQEAYIAKQKRLKSKLLDHDNVKYLKKILDELEKVLDQVETELQRRNEETPEEGQQPWLCGESFTLADVSLAVTLHRLKFLGFARRNWGNGKRPNLETYYERVLKRKTFNKVLGHVNNILISAVLPTAFRVAKKRAPKVLGTTLVVGLLAGVGYFAFMLFRKRLGSMILAFRPRPNYF [GDAP1]”: the thermal stability score in the series with HeLa Kyoto [1] (setting [5]) and in the series with HeLa Kyoto [1] (cell cycle stage: mitosis) was 1.45 each time. Further, the “solubility change mitosis (log2)” value in the series on HeLa Kyoto [2] was -0.1. In addition, the results for the melting temperature in the series on HeLa Kyoto [3] (cell cycle stage: G1/S) and in the series on HeLa Kyoto [3] (cell cycle stage: mitosis) were 54 °C and 52 °C, respectively. The “solubility in G1/S (log2)” value in the series on HeLa Kyoto [4] is -0.194.
Consider “MAESDWDTVTVLRKKGPTAAQAKSKQAILAAQRRGEDVETSKKWAAGQNKQHSITKNTAKLDRETEELHHDRVTLEVGKVIQQGRQSKGLTQKDLATKINEKPQVIADYESGRAIPNNQVLGKIERAIGLKLRGKDIGKPIEKGPRAK [EDF1]”, for which the thermal stability score in the series with HeLa Kyoto [1] (setting [5]) is -4.76; in the series on HeLa Kyoto [1] (cell cycle stage: mitosis), -6.66. Further, the “solubility change mitosis (log2)” value with HeLa Kyoto [2] turned out to be 0.78. For the same sequence, the figures for the melting temperature in the series on HeLa Kyoto [3] (cell cycle stage: G1/S) and with HeLa Kyoto [3] (cell cycle stage: mitosis) were 55.2 °C and 52.7 °C, respectively. In addition, the “solubility in G1/S (log2)” value in the series on HeLa Kyoto [4] is 0.119.
With “MAESIIIRVQSPDGVKRITATKRETAATFLKKVAKEFGFQNNGFSVYINRNKTGEITASSNKSLNLLKIKHGDLLFLFPSSLAGPSSEMETSVPPGFKVFGAPNVVEDEIDQYLSKQDGKIYRSRDPQLCRHGPLGKCVHCVPLEPFDEDYLNHLEPPVKHMSFHAYIRKLTGGADKGKFVALENISCKIKSGCEGHLPWPNGICTKCQPSAITLNRQKYRHVDNIMFENHTVADRFLDFWRKTGNQHFGYLYGRYTEHKDIPLGIRAEVAAIYEPPQIGTQNSLELLEDPKAEVVDEIAAKLGLRKVGWIFTDLVSEDTRKGTVRYSRNKDTYFLSSEECITAGDFQNKHPNMCRLSPDGHFGSKFVTAVATGGPDNQVHFEGYQVSNQCMALVRDECLLPCKDAPELGYAKESSSEQYVPDVFYKDVDKFGNEITQLARPLPVEYLIIDITTTFPKDPVYTFSISQNPFPIENRDVLGETQDFHSLATYLSQNTSSVFLDTISDFHLLLFLVTNEVMPLQDSISLLLEAVRTRNEELAQTWKRSEQWATIEQLCSTVGGQLPGLHEYGAVGGSTHTATAAMWACQHCTFMNQPGTGHCEMCSLPRT [NPLOC4]”, the thermal stability score was 0.478 with HeLa Kyoto [1] (setting [5]) and -0.273 in the series with HeLa Kyoto [1] (cell cycle stage: mitosis). Besides, the “solubility change mitosis (log2)” value in the series with HeLa Kyoto [2] was -0.119. Further, the melting temperature in the series with HeLa Kyoto [3] (cell cycle stage: G1/S) is 51.8 °C; in the series on HeLa Kyoto [3] (cell cycle stage: mitosis), 52 °C. In addition, in the series on HeLa Kyoto [4], the “solubility in G1/S (log2)” value was -0.00908.
For “MAETEALSKLREDFRMQNKSVFILGASGETGRVLLKEILEQGLFSKVTLIGRRKLTFDEEAYKNVNQEVVDFEKLDDYASAFQGHDVGFCCLGTTRGKAGAEGFVRVDRDYVLKSAELAKAGGCKHFNLLSSKGADKSSNFLYLQVKGEVEAKVEELKFDRYSVFRPGVLLCDRQESRPGEWLVRKFFGSLPDSWASGHSVPVVTVVRAMLNNVVRPRDKQMELLENKAIHDLGKAHGSLKP [HTATIP2]”, the values for the thermal stability score in the series on HeLa Kyoto [1] (setting [5]) and in the series on HeLa Kyoto [1] (cell cycle stage: mitosis) were 2.61 and 4.75, respectively. For the same sequence, the “solubility change mitosis (log2)” value in the series on HeLa Kyoto [2] is -0.095. In addition, the melting temperature in the series on HeLa Kyoto [3] (cell cycle stage: G1/S) came to 50.8 °C; with HeLa Kyoto [3] (cell cycle stage: mitosis), 50.2 °C. The “solubility in G1/S (log2)” value in the series with HeLa Kyoto [4] came to 0.148.
Take “MAEVGEDSGARALLALRSAPCSPVLCAAAAAAAFPAAAPPPAPAQPQPPPGPPPPPPPPLPPGAIAGAGSSGGSSGVSGDSAVAGAAPALVAAAAASVRQSPGPALARLEGREFEFLMRQPSVTIGRNSSQGSVDLSMGLSSFISRRHLQLSFQEPHFYLRCLGKNGVFVDGAFQRRGAPALQLPKQCTFRFPSTAIKIQFTSLYHKEEAPASPLRPLYPQISPLKIHIPEPDLRSMVSPVPSPTGTISVPNSCPASPRGAGSSSYRFVQNVTSDLQLAAEFAAKAASEQQADTSGGDSPKDESKPPFSYAQLIVQAISSAQDRQLTLSGIYAHITKHYPYYRTADKGWQNSIRHNLSLNRYFIKVPRSQEEPGKGSFWRIDPASEAKLVEQAFRKRRQRGVSCFRTPFGPLSSRSAPASPTHPGLMSPRSGGLQTPECLSREGSPIPHDPEFGSKLASVPEYRYSQSAPGSPVSAQPVIMAVPPRPSSLVAKPVAYMPASIVTSQQPAGHAIHVVQQAPTVTMVRVVTTSANSANGYILTSQGAAGGSHDAAGAAVLDLGSEARGLEEKPTIAFATIPAAGGVIQTVASQMAPGVPGHTVTILQPATPVTLGQHHLPVRAVTQNGKHAVPTNSLAGNAYALTSPLQLLATQASSSAPVVVTRVCEVGPKEPAAAVAATATTTPATATTASASASSTGEPEVKRSRVEEPSGAVTTPAGVIAAAGPQGPGTGE [FOXK1]”: the thermal stability score was found to be 2.52 in the series with HeLa Kyoto [1] (setting [5]) and 2.09 with HeLa Kyoto [1] (cell cycle stage: mitosis). Further, the “solubility change mitosis (log2)” value in the series on HeLa Kyoto [2] is -0.0982. Further, the melting temperature is 49.1 °C in the series on HeLa Kyoto [3] (cell cycle stage: G1/S) and 51 °C in the series on HeLa Kyoto [3] (cell cycle stage: mitosis). Also, the “solubility in G1/S (log2)” value with HeLa Kyoto [4] turned out to be 0.588.
Regarding “MAEVSIDQSKLPGVKEVCRDFAVLEDHTLAHSLQEQEIEHHLASNVQRNRLVQHDLQVAKQLQEEDLKAQAQLQKRYKDLEQQDCEIAQEIQEKLAIEAERRRIQEKKDEDIARLLQEKELQEEKKRKKHFPEFPATRAYADSYYYEDGGMKPRVMKEAVSTPSRMAHRDQEWYDAEIARKLQEEELLATQVDMRAAQVAQDEEIARLLMAEEKKAYKKAKEREKSSLDKRKQDPEWKPKTAKAANSKSKESDEPHHSKNERPARPPPPIMTDGEDADYTHFTNQQSSTRHFSKSESSHKGFHYKH [CCDC50]”, the results for the thermal stability score in the series with HeLa Kyoto [1] (setting [5]) and in the series on HeLa Kyoto [1] (cell cycle stage: mitosis) were -5.07 and -1.65, respectively. Also, the “solubility change mitosis (log2)” value in the series on HeLa Kyoto [2] was 0.182. The melting temperature with HeLa Kyoto [3] (cell cycle stage: G1/S) is 57.7 °C; with HeLa Kyoto [3] (cell cycle stage: mitosis) it was 55 °C. For the same sequence, the “solubility in G1/S (log2)” value in the series on HeLa Kyoto [4] was determined as 0.334.
As to “MAFLRSMWGVLSALGRSGAELCTGCGSRLRSPFSFVYLPRWFSSVLASCPKKPVSSYLRFSKEQLPIFKAQNPDAKTTELIRRIAQRWRELPDSKKKIYQDAYRAEWQVYKEEISRFKEQLTPSQIMSLEKEIMDKHLKRKAMTKKKELTLLGKPKRPRSAYNVYVAERFQEAKGDSPQEKLKTVKENWKNLSDSEKELYIQHAKEDETRYHNEMKSWEEQMIEVGRKDLLRRTIKKQRKYGAEEC [TFAM]”, the thermal stability score was -1.96 in the series with HeLa Kyoto [1] (setting [5]) and -1.16 in the series on HeLa Kyoto [1] (cell cycle stage: mitosis). For the same sequence, the “solubility change mitosis (log2)” value in the series on HeLa Kyoto [2] amounted to 0.546. For the same sequence, the melting temperature with HeLa Kyoto [3] (cell cycle stage: G1/S) worked out at 53.1 °C; with HeLa Kyoto [3] (cell cycle stage: mitosis) it was 53 °C. In the series on HeLa Kyoto [4], the “solubility in G1/S (log2)” value stood at 0.578.
